According to US20150010586A1 (ACADEMISCH ZIEKENHUIS LEIDEN H O D N LUMC, published 2015):

Legend:
Assay in all cases: cellular competition assay vs FL-labelled reference peptide on B cells; affinity category (high/good IC50<5 uM, intermediate 5-15 uM, low >15-50 uM)
HLA-A*0101 = target: T1, HLA-A*0101 (human)
T1 construct: whole, on cells; also called A1

HLA-A*0301 = target: T2, HLA-A*0301 (human)
T2 construct: whole, on cells; Class I molecule on intact B cells (EKR); also called A3

HLA-A*1101 = target: T3, HLA-A*1101 (human)
T3 construct: whole, on cells; Class I molecule on intact B cells (BVR)

Row | Binder | IC50 (HLA-A*0101) [µM] | IC50 (HLA-A*0301) [µM] | IC50 (HLA-A*1101) [µM]
1 | GTAKSVTCTY (also called A1 (117-126); A3 (117-126)) [p53 117-126 GTAKSVTCTY] | 5 to 15 | 5 to 15 | –
2 | CTTIHYNY (also called A1 (229-236)) [p53 229-236 CTTIHYNY] | 5 to 15 | – | –
3 | GGSRAHSSHLK (also called A3 (360-370)) [p53 360-370 GGSRAHSSHLK] | – | 5 to 15 | –
4 | RVRAMAIY (also called A3 (156-163)) [p53 156-163 RVRAMAIY] | – | 5 to 15 | –
5 | YLDDRNTFRH (also called A1 (205-214)) [p53 205-214 YLDDRNTFRH] | 5 to 15 | – | –
6 | GQSTSRHKK (also called A11 (374-382)) [p53 374-382 GQSTSRHKK] | – | – | 5 to 15
